# According to PMC6591006:
# Biological target: Monoclonal anti-HIV-1 Env SF12 (IgG)
# Experiment: ELISA
# Details: highest antibody concentration of the titration (last point of the curve, between 1 and 10 µg/ml); parent: est. 3.3; read off a plot
substance,measurement,value
YU2 gp140 foldon trimer (wild type) A281T; D368K,response,2.7 OD
